Assay results taken from US20150232576A1.
Each block holds one substance with its values, some of them ahead of it.

Columns and labels:
[1] = biological target: Phosphorylated His-p38 (p38 MAP kinase) (UniProt Q16539); assay: BLI, immobilised p38, 696 nM nNOS analyte, compared with eNOS
[2] = biological target: Phosphorylated His-p38 (p38 MAP kinase) (UniProt Q16539); assay: optical biosensing (BLI), summary statement
[3] = biological target: Phosphorylated His-p38 (p38 MAP kinase) (UniProt Q16539); assay: BLI, immobilised p38, k2/k1
[4] = biological target: Phosphorylated His-p38 (p38 MAP kinase) (UniProt Q16539); assay: BLI, biotinylated p38 on streptavidin sensors, 696 nM eNOS analyte
[5] = biological target: Phosphorylated His-p38 (p38 MAP kinase) (UniProt Q16539); assay: refers to the biosensor experiments described above
[6] = biological target: Phosphorylated His-p38 (p38 MAP kinase) (UniProt Q16539); assay: BLI, biotinylated p38 on streptavidin sensors, 696 nM eNOS, 300 s dissociation in buffer
[7] = biological target: Phosphorylated His-p38 (p38 MAP kinase) (UniProt Q16539); assay: BLI, immobilised p38, from the pseudo first order rate at 232 nM eNOS
[8] = biological target: Phosphorylated His-p38 (p38 MAP kinase) (UniProt Q16539); assay: BLI, immobilised p38, eNOS analyte, two-component sequential model

Chain of endothelial nitric oxide synthase (eNOS), purified, unphosphorylated (P29473 whole entry): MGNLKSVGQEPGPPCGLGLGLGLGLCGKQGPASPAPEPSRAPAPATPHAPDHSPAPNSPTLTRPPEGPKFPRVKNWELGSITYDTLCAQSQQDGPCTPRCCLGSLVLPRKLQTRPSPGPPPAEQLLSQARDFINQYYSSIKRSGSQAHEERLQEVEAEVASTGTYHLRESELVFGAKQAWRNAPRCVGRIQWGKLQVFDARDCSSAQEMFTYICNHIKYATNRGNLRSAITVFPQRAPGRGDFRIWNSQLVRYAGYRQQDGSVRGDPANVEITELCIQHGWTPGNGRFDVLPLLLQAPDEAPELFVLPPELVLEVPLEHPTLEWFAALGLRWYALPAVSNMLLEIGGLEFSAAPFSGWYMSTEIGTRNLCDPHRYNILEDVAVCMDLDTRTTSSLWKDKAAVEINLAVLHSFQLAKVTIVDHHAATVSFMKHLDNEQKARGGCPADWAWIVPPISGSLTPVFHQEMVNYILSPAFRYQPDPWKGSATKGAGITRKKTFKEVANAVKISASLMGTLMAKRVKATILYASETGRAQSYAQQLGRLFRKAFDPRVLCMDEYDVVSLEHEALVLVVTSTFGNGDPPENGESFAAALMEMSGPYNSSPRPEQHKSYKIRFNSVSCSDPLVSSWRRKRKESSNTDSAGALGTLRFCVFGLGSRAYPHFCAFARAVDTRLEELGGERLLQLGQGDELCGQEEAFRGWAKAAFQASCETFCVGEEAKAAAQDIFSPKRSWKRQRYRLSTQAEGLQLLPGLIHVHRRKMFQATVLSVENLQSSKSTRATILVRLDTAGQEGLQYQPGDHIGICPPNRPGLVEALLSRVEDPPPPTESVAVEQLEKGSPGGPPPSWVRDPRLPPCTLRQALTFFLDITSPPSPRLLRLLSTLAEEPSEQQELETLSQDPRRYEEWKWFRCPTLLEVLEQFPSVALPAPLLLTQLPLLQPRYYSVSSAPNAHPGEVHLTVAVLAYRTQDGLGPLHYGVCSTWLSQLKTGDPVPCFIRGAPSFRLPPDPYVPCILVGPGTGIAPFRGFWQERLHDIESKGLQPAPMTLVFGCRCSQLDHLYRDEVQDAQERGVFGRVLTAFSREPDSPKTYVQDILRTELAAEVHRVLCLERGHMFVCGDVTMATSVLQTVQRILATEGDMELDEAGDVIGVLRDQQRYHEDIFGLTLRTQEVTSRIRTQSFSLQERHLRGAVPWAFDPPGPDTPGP

fold slower binding than eNOS [1]: 30 fold
Substance: neuronal nitric oxide synthase (nNOS) (from UniProt P29476 1-1429) (enzyme)

Kd [2]: 100 nM
kon [2]: 150000 M⁻¹ s⁻¹
Kd [3]: 80 nM
half time of the initial association component [4]: 10 s
Kd [5]: 0.05 to 0.1 nM
percent of the rapid phase binding dissociated in buffer [6]: 25%
kon [7]: 130000 M⁻¹ s⁻¹
k1 (pseudo first order forward rate, first step) at 26 nM eNOS [8]: 0.0025 s⁻¹
k1 (pseudo first order forward rate, first step) at 77 nM eNOS [8]: 0.0008 s⁻¹
k1 (pseudo first order forward rate, first step) at 232 nM eNOS [8]: 0.03 s⁻¹
k1 (pseudo first order forward rate, first step) at 696 nM eNOS [8]: 0.1 s⁻¹
k2 (reverse rate, first step) at 26 nM eNOS [8]: 0.01 s⁻¹
k2 (reverse rate, first step) at 77 nM eNOS [8]: 0.01 s⁻¹
k2 (reverse rate, first step) at 232 nM eNOS [8]: 0.01 s⁻¹
k2 (reverse rate, first step) at 696 nM eNOS [8]: 0.01 s⁻¹
k3 (forward rate, second step) at 26 nM eNOS [8]: 0.0002 s⁻¹
k3 (forward rate, second step) at 77 nM eNOS [8]: 0.006 s⁻¹
k3 (forward rate, second step) at 232 nM eNOS [8]: 0.0002 s⁻¹
k3 (forward rate, second step) at 696 nM eNOS [8]: 0.006 s⁻¹
k4 (reverse rate, second step) at 26 nM eNOS [8]: 0.001 s⁻¹
k4 (reverse rate, second step) at 77 nM eNOS [8]: 0.001 s⁻¹
k4 (reverse rate, second step) at 232 nM eNOS [8]: 0.001 s⁻¹
k4 (reverse rate, second step) at 696 nM eNOS [8]: 0.001 s⁻¹
Substance: endothelial nitric oxide synthase (eNOS), purified, unphosphorylated (from UniProt P29473 1-1205) (enzyme)
